Assay: soluble on expression in E. coli; label from the status in PepcDB or PDB records

Row | Sequence | soluble on expression in E. coli
1 | MSLSFASSACFNEAGTMFRIEPNLIKAIALVESNLKKDSIGKNRDKKNNIKSFDYGLMQINQMHIPMLKKRGIIKDERDLLDNPCLNIKIGTEILYKHFSRCGMTWQCLGTYNAGFAMDNQKKRLQYAKKIYIVYTRLNELDNRKALAEGHHHHHH | soluble
2 | MGSDKIHHHHHHMKFTDIEYFDKLSELESFSKTAIFFNVSQPTISFAIQRLENEMKKTLINRNQSHGEISLTEAGKVFEKHAKKILQEVVAAHEEIDRMNQPTIEFGLPQIIGNYYLPKLVKHFVGNPFFQNVATNEAGSNLLLGALKNRRLDLAIISSVEPVKIEGLETIEIDRKKYSIVVNKDNPLAKQKKVSFEDLADEKFVSLKEGNVHPIAFRKLEETYNVYPKIIYETPDINILKKMIAEKTGIGFIVEIAVEKQDNLATLELSNEKVPEFIISFVYKKDLQIPGIKRIVEELRNNSVFDQDR | not soluble
3 | MELYETSPYFYQEPRFYDGENYLPVHLQGFEPPGYERTELTLSPEAPGPLEDKGLGTPEHCPGQCLPWACKVCKRKSVSVDRRRAATLREKRRLKKVNEAFEALKRSTLLNPNQRLPKVEILRSAIQYIERLQALLSSLNQEERDLRYRGGGGPQPGVPSECSSHSASCSPEWGSALEFSANPGDHLLTADPTDAHNLHSLTSIVDSITVEDVSVAFPDETMPN | soluble
4 | MKWRTRVTELLGITYPIIQGGLAYLAYADLAAAVSNAGGLGQITAMSLDGPEQLREEIRKVKEKTDRPFGVNFAIGQHGRPFAHMLEAALDEGVPVVSVTGGNPAPFFEQLKGTNVKKLVLVAAVRQAVKAEELGADAVMVVGQEGGGHLGKYDTGTFVLIPKVVDSVSIPVIASGGIADGRGLMAALALGAEGIEMGTRFIATKECVHAHPAYKEMILNATENDTVIIKRSLGAPGRVLANAWAEKILEIERQGGTYDDLKEYISGEANRRFIYEGKVDEGFAWAGQAIGLIHDVPSVAELFARMIEEAEQIRRRWAN | not soluble
5 | GPLGSPLIGEIGPETYSDYMSAGIPLAYIFAETAEERKELSDKLKPIAEAQRGVINFGTIDAKAFGAHAGNLNLKTDKFPAFAIQEVAKNQKFPFDQEKEITFEAIKAFVDDFVAGKIEPSIKSEPIPEKQEG | soluble
6 | MAHHHHHHMQSQQHHYTASPTASPALSRAGVSSTPVLILDLGSRTIKSGLHTATTPHLTPALVGTPKYPRCLPQVSSSFNQSSSISTSCFVVGSDAASRRGVLRLSRPIQHGGVIMDWVGTRPLLRQSIQNALVPPSSSLAVRQPLEEGEDVIYSLVESPYASRPQRARLAELLFEGPDQEAVMSDSGKQQRVGPRAAGVFCGVGPLLALYATGQTTGVVVDVGDGAVSTAAAADGYVLPQCLQREADGATGAAVTSYLTRLLYQSGVLGPAAATAAFRRSAPPSLLGSATNHLSSGAGAGTQQERELVYALKEACCSVSATPLFSTKSSLAAADASTAATPSLAELNSALIAAAQRTQHSGPGGSGAAHASTPFSHPFTLPDGSFLEVGGAEAAQASEVLFYPALMGSEGRGVVDVVLDAVAAAPAELQPQLLGNVVVTGGVTCSAGFGYRFFNEMQQRIRGCAASSTNGSSNQRICVSAPEQRAYAAWMGASYVAQISSFASSMVVTRAAYEEEGEAALARRVLT | not soluble
7 | ENMLFTVVSLYISTKVLDFILEGYNPKKSVTIISDYYEEIATEIDANLERGITLFNGQGFYMRQDKKILYIVISRDQLLPLTKIVNKYDEKAFFIINDVQSVVGEGFTKQITSE | not soluble
8 | MSLLIDKFGRPVTNLRISLTKECNLNCFYCHREGQQDGERTMTPEEIERIVRIASRLGIRNVKLTGGEPTVRPDIYEIIQRIRPYVVDLSMTTNGTTLYASAEKLKEAGLDRVNISLDTLDRKKYKMITGYDVLDQVLKGIRRATNLFYPVKLNMVVMRGINDDEIWDMIRFAGEVNAILQLIEIEVPREMENSQFFKDFFYPLKPLEEKFEKIAVEIRERKMHRRRKYFLPVDGKMVEVEVVRSMHNTTFCMNCTRLRLTADGYLKTCLLRKDDLIDILGPIRRGATDDELVKIFKRAVQLRKPYWINEGHHHHHH | soluble
9 | MGSDKIHHHHHHMRILLTGIPSYLQRTVSGVSGAEVRHRPYFDEVRTKKELIEQVKKIANTGNYLIGEGAAHALRGHDVTYLPFWHLVNSRNSDEAYESLNEEFDICVFASANLLRPGYSADLEAEVFEKLKMPVVIMGIGIQRREGLKENLPAGTLKFLEVLRNKESFFLTRGYFTAEFLREQGMKFVKPTGCPSLFFAPAEMKRSLAALANPELASSQKIAFGGYLGSVADTIVDAHALLKPDSVASYVIQDEVVAYNLSLPVDDDLPVYDRASGRITGQTAYKHSEKWQRKHELLVFFDTNQWRSWVSARDLCFGRRFHGCIIGMQAGVPSLMIAVDDRMREMLEFIGFPYMEAAVWNREQDRKAYLASFLSKIDSQAVIDRYSACETNFRNALAHVGL | not soluble
10 | MGSDKIHHHHHHLGFILDKSGLIPPSIDFPELIKAGREQLHRETDYEQEARHLDMFFKLMAGDKCFEVPRINQEFTTDKTLAMEFKEGVTIDQIVSANYNVKNKAVLNLIDLFFRELFEFNLIQSDPNYANFLFDEKNGKIILLDFGATIPVSSDTLAKFKALFNETLGQNKKSVENAMYQLGILDKGLPSHILNELTDIYWDSTEPIRKNKMFDFGNSNILERMQELSSEIIVHRKKIKIPPFDILSIQRKIGGIFLLARRFEAKINLNKIFEK | not soluble
11 | MGSDKIHHHHHHVSTQFQGVIPPVITPRHADGSIDTSSLKNVTRHLIDGGVSGLFVLGSSGEVPYMTNAERELVVSTIADANASVGARAVPLIVGANEQTTNRVIEEAKKVIGLGADAIVVTSMYYAIGNAAETETHFRSIHAAVDKPIFAYDVPVRTHFKLPTDLLVRLGRDGVIAGVKDSSGDDVSFRQLLLEAKDIPDFDIFTGHEVVVDGALLGGAQGVVPGLGNVDPAGYRRLFDAAQAGDWATAAREQDRLADLFEIVYAPNGRVSGGAAGLGAFKTALQLMGVIESNTMSQPMLSLNDDEAAAIRTILERNGLV | not soluble
12 | MAHHHHHHMASADVVSTWVCPICMVSNETQGEFTKDTLPTPICINCGVPADYELTKSSINCSNAIDPNANPRNQFG | soluble
13 | MAHHHHHHMMRRMWVPTFSAQQQHLHHAMGLKMLTYASTPSGSGVTSAASNEEMNLHDAAAIAPGPYRRVGNIFIVHCDDHPFKHSWEVNRMLRELRLEFKGQTTIVPDIPQVRKRIWRVRHIVKVDVLDLDEAKALIGVPEHISFTDLASQLPPSFGRVKAVPSPVIRSKMNFMKLRRMRLRDVLHRDALELRLLELKRSAMKNAEQQKHAQK | not soluble
14 | MTTHQFEHPLNEKTRIYLRVEALLNQMERASTFSDGIQHQLFFRSLFDMLEIFEQIQLKSELAKDMEKQRLTYRSWLHVEGVDQEMLNSLLTEVDEVHRDLMSAERFGQSLKEDRFLSAIRQRFNLPGGSCCFDLPALHYWLHLPLDRKMRDAQQWMQTVTPLSNALKLWLKLTRETGHYRSRMASNGFYQSDAEDANILRLAIPLEYGVYPMISGHKNRFAIKFIDFHSGQACTQDIAFDLAVCC | not soluble
15 | NIDLDIHARENIANITNAMIELVSQDCHWLKVWFEWSASTRDEVWPLFVSTNRTNQLLVQNMFIKAIERGEVCDQHDSEHLANLFHGICYSLFVQANRFKGEAELKELVSAYLDMLCIYNREH | not soluble
16 | MGSDKIHHHHHHKEKKADTYVTKVTDLTGEEEQVLKLEYDRDGKIIKYGDTPVRYEGDQITIGQMNCLNTGNKLCNVTFQIGKGKARESRARCMLKVGEEVYEADKQTVYDYKGDTIFINSDYRATSDYRFLKKVQGKYVFDQLGRLKEVMTVFTEANDSVSSCHTYYNYDNNINYQANLNLQAYVIDYDGVDSFFYFLLNLGQLRNRTALPNDIGYCMNHGLSTYNVHANYRLDDENPVRIEVLYNYTKLLSRIDLSYNPLN | not soluble
17 | MSLSQSLWQRLFNHRQQTKQAVLILGSGRSGTSVMTKCVNLMGISLGTDNLLAPSKRINPKGYFENKDVINIHKSLGSRIRYRPAFKDYYDSPKIKKDRAALTTYLRNFFENEQYLAIKDPRMNDYIELWQRVLADVEVQPAEIVLLRNPMDVVNSNERAWHRDTTLAMRQWQVRTLLSLRDTDREHRILVTYEDLFGQTLTTLKRIATQFNLPWTSDEAALQAQIDDFIDPALQKSDSGENLADFEARTDVKPDVKALYLLGRQAAADPDYFASAEFQQRIDEMTDEYLAKYGALYRDFNEGHHHHHH | soluble
18 | MNITPLTSAAGKGSSAQGTDKISIPNSTRMINAASIKWLNKVRSAISDHIRTSIEKGKLFELASLGSNMFGVPALSARPSTLQPVLAFEADPNHDLNLVRVYMQDSAGKLTPWDPTPNAVTTTSNPSEPDAQSDTASSSLPRRPPAGSVLSLLGIALDHAQRHSPRADRSAKGRPGREERNGARFNAKQTKPTEAEAYGDHQTPNPDLHRQKETAQRVAESINSMREQQNGMQRAEGLLRAKEALQAREAARKQLLDVLEAIQAGREDSTDKKISATEKNATGINYQ | not soluble
19 | MSLKYEKIAFFRFFGRLNDFFRNSERIKTHRFTGFQTVKDRIEALGVPHVEVSLITLNGKPVGFDHMVEDGELFFVYPEFQNIEIPEDWLVTPRYIGEPRFVLDIHLGKLARLLRMLGFEAVFGEESDEKLCWMAVKKKAILLSRDTGLLKRKELVFGYYVRNTDPKEQLVEVVERYDLKKWMKPFTRCIECGVELEEVPKEAVKNRVPPKVYGFFNEFARCPVCGRIYWKGSHYDHMVEFIKSNINKGEGHHHHHH | soluble
20 | MSLFPILETDRLILRQITDQDAEAIFACFSNDEVTRYYGLENMESIEQAISMIQTFAALYQEKRGIRWGIERRDTKELIGTIGFHALAQKHRRAEIGYEIIPEHWRNGFASEVISKVVSYGFSALGLSRIGAVVFTDNEASNRLLLKMGFQKEGVLRQYMYSKWDSIEGGSHHHHHH | soluble
21 | MGDKGTRVFKKASPNGKLTVYLGKRDFVDHIDLVEPVDGVVLVDPEYLKERRVYVTLTCAFRYGREDLDVLGLTFRKDLFVANVQSFPPAPEDKKPLTRLQERLIKKLGEHAYPFTFEIPPNLPCSVTLQPGPEDTGKACGVDYEVKAFCAENLEEKIHKRNSVRLVIRKVQYAPERPGPQPTAETTRQFLMSDKPLHLEASLDKEIYYHGEPISVNVHVTNNTNKTVKKIKISVRQYADICLFNTAQYKCPVAMEEADDTVAPSSTFCKVYTLTPFLANNREKRGLALDGKLKHEDTNLASSTLLREGANREILGIIVSYKVKVKLVVSRGGLLGDLASSDVAVELPFTLMHPKPKEEPPHREVPEHETPVDTNLIELDTNDDDIVFEDFARQRLKGMKDDKEEEEDGTGSPRLNDR | soluble
22 | MGSDKIHHHHHHMAFDEMINADSSPRQPYSTYHQWYASQDRNRLIAKSKEAEKIFRKTGITFAVYGHADSSEKLIPFDLIPRIISGREWRRLAQGIEQRVIALNAFLDDIYHKQEIIRAGRIPRELVEKNDTFLPQMIGFRPPGGVYTHIVGTDIVRTGEDQYYVLEDNARTPSGVSYMLENRETMMQMFPELFHQNRVRPVENYPNLLRQSLSSLAPAGCEGKPRVAVLTPGIYNSAFYEHAFLADMMGVELVEGSDLRVIDGRVKMRTTRGYEAIDVLYRRVDDDFLDPLTFRPDSALGIPGIMDVYRAGNITIANAPGTGISDDKAIYSYMPEIVEFYTGRKPLLENVPTWRCSEPESLKYVLEHLAELVVKEVHGSGGYGMLVGPTATKKECAAFAEKLKSRPGNYIAQPTLSLSTVPIMVNKGIAPRHVDLRPYVLVSDKVQIIPGGLTRVALKEGSLVVNSSQGGGTKDTWVLED | not soluble
23 | SLRLKISLLSPADSFEIDLNHSYHLASAIYRAIERADPSLSIELHKPDVPKFFTFSKLFIPKRKFRIEGEKMVSDCEEAYFFFSTLRNEVAASLVEGLLSKPEIRICGVDFIVSEVSVLPEREVKGREKFVTLSPIYASTSVGENGRRRIFDLYPKDSKFYEVILQNLVKKYVLYYKSAPENLDFHMKPLNVKAKRIRLKDTFHRCVEMVFKAEGSPELLDVGYKAGFGSKNSMGFGMVKVV | soluble
